From the supplement of paper PMC10266784

B1: library; numbered along this chain (parent)
chain: MAAAAAAAAEQQSSNGPVKKSMREKAVERRSVNKEHNSNFKAGYIPIDEDRLHKTGLRGRKGNLAICVIILLFILAVINLIITLVIWAVIRIGPNGCDSMEFHESGLLRFKQVSDMGVIHPLYKSTVGGRRNENLVITGNNQPIVFQQGTTKLSVENNKTSITSDIGMQFFDPRTQNILFSTDYETHEFHLPSGVKSLNVQKASTERITSNATSDLNIKVDGRAIVRGNEGVFIMGKTIEFHMGGNMELKAENSIILNGSVMVSTTRLPSSSSGDQLGSGDWVRYKLCMCADGTLFKVQVTSQNMGCQISDNPCGNTH

Variants of: B1
Experiment: SGCB cell-surface expression functional score (HA stain, bin4 vs bin1, normalised to synonymous) (log10 ratio); higher = more cell-surface SGCB (functional)
Method in brief: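 Human beta-sarcoglycan, tagged with HA and fused to YFP, was built into codon-saturation libraries and delivered by lentivirus at MOI <0.1 into HEK293 cells that stably express alpha-, gamma- and delta-sarcoglycan. After 72 hours, YFP-positive cells were sorted and grown for 5–7 days, then stained on ice with Alexa Fluor 647 anti-HA, fixed, sorted into four 5% intensity bins and amplicon-sequenced. Each variant's functional score is the log ratio of its frequency in the highest bin to that in the lowest bin, taken as the median across codons and transductions. Transductions were done in duplicate, and synonymous variants were scaled per section to mean 0, SD 0.5.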

Going from V136K to V136P, the “SGCB cell-surface expression functional score (log10)” value falls from 0.36 to -1.03.

Compared with V136C, V136W is higher in “SGCB cell-surface expression functional score (log10)” value: -0.25 for the first, 0.57 for the second.

Going from V136I to V136H, the “SGCB cell-surface expression functional score (log10)” value falls from 0.32 to -0.22.

V136Y and V136A are within 0.2 log units of each other in “SGCB cell-surface expression functional score (log10)” value: 0.15 for the first, 0.05 for the second.

Going from V136E to V136F, the “SGCB cell-surface expression functional score (log10)” value rises from 0.05 to 0.49.

First: V136R
Second: V136Q
The “SGCB cell-surface expression functional score (log10)” value of the first is lower: -0.57 for the first, 0.22 for the second.

V136M and V136T are within 0.2 log units of each other in “SGCB cell-surface expression functional score (log10)” value: -0.57 for the first, -0.51 for the second.

V136N and V136L are within 0.2 log units of each other in “SGCB cell-surface expression functional score (log10)” value: -0.01 for the first, 0.17 for the second.

First: V136G
Second: V136D
The “SGCB cell-surface expression functional score (log10)” value of the first is lower: -0.58 for the first, -0.33 for the second.

First: V136S
Second: I137A
The “SGCB cell-surface expression functional score (log10)” value of the first is higher: -0.3 for the first, -1.07 for the second.

I137W and I137T are within 0.2 log units of each other in “SGCB cell-surface expression functional score (log10)” value: -0.8 for the first, -0.7 for the second.

First: I137F
Second: I137H
The “SGCB cell-surface expression functional score (log10)” value of the first is higher: -0.01 for the first, -1.24 for the second.

I137K and I137S are within 0.2 log units of each other in “SGCB cell-surface expression functional score (log10)” value: -1.21 for the first, -1.35 for the second.

First: I137N
Second: I137C
The “SGCB cell-surface expression functional score (log10)” value of the first is lower: -1.72 for the first, -1.42 for the second.

Compared with I137R, I137L is higher in “SGCB cell-surface expression functional score (log10)” value: -1.41 for the first, -0.12 for the second.

Compared with I137Q, I137V is higher in “SGCB cell-surface expression functional score (log10)” value: -1.71 for the first, -0.52 for the second.

Compared with I137Y, I137E is higher in “SGCB cell-surface expression functional score (log10)” value: -1.36 for the first, -0.97 for the second.

I137P and I137D are within 0.2 log units of each other in “SGCB cell-surface expression functional score (log10)” value: -1.44 for the first, -1.25 for the second.

First: I137G
Second: I137M
The “SGCB cell-surface expression functional score (log10)” value of the first is lower: -1.08 for the first, 0.54 for the second.

R131T and R131F are within 0.2 log units of each other in “SGCB cell-surface expression functional score (log10)” value: -0.17 for the first, -0.03 for the second.

Going from R131Q to R131L, the “SGCB cell-surface expression functional score (log10)” value rises from -0.6 to 0.13.

R131D and R131G are within 0.2 log units of each other in “SGCB cell-surface expression functional score (log10)” value: 0.14 for the first, 0.16 for the second.

First: R131M
Second: R131C
The “SGCB cell-surface expression functional score (log10)” value of the first is higher: 0.59 for the first, 0.15 for the second.

R131W and R131E are within 0.2 log units of each other in “SGCB cell-surface expression functional score (log10)” value: 0.6 for the first, 0.66 for the second.

Going from R131I to R131H, the “SGCB cell-surface expression functional score (log10)” value falls from 0.65 to -0.12.

First: R131P
Second: R131N
The “SGCB cell-surface expression functional score (log10)” value of the first is lower: -0.13 for the first, 0.24 for the second.

First: R131V
Second: R131S
The “SGCB cell-surface expression functional score (log10)” value of the first is higher: 0.31 for the first, -0.09 for the second.

R131K and R131A are within 0.2 log units of each other in “SGCB cell-surface expression functional score (log10)” value: 0.23 for the first, 0.14 for the second.

Going from R131Y to R130C, the “SGCB cell-surface expression functional score (log10)” value falls from 0.31 to -0.28.

R130V and R130W are within 0.2 log units of each other in “SGCB cell-surface expression functional score (log10)” value: -0.41 for the first, -0.57 for the second.

Going from R130Q to R130H, the “SGCB cell-surface expression functional score (log10)” value falls from 0.47 to 0.08.

R130I and R130A are within 0.2 log units of each other in “SGCB cell-surface expression functional score (log10)” value: 0.29 for the first, 0.27 for the second.

Compared with R130T, R130D is lower in “SGCB cell-surface expression functional score (log10)” value: -0.51 for the first, -1.07 for the second.

Going from R130S to R130P, the “SGCB cell-surface expression functional score (log10)” value rises from -0.4 to 0.33.

Going from R130F to R130G, the “SGCB cell-surface expression functional score (log10)” value falls from 0.13 to -0.2.

Going from R130K to R130M, the “SGCB cell-surface expression functional score (log10)” value rises from -0.01 to 0.56.

Compared with R130N, R130Y is higher in “SGCB cell-surface expression functional score (log10)” value: -0.47 for the first, 0.43 for the second.

Compared with R130L, R130E is lower in “SGCB cell-surface expression functional score (log10)” value: 0.65 for the first, 0.14 for the second.

First: N134V
Second: N134K
The “SGCB cell-surface expression functional score (log10)” value of the first is lower: -0.29 for the first, 0.09 for the second.

Going from N134P to N134R, the “SGCB cell-surface expression functional score (log10)” value falls from -0.03 to -0.6.

First: N134H
Second: N134C
The “SGCB cell-surface expression functional score (log10)” value of the first is higher: 0.34 for the first, -0.25 for the second.

Compared with N134L, N134G is higher in “SGCB cell-surface expression functional score (log10)” value: -0.84 for the first, -0.09 for the second.

Going from N134S to N134A, the “SGCB cell-surface expression functional score (log10)” value rises from 0.08 to 0.39.

N134F and N134T are within 0.2 log units of each other in “SGCB cell-surface expression functional score (log10)” value: -0.37 for the first, -0.26 for the second.

Going from N134D to N134E, the “SGCB cell-surface expression functional score (log10)” value falls from 0.11 to -0.18.

Compared with N134M, N134Q is lower in “SGCB cell-surface expression functional score (log10)” value: -0.26 for the first, -0.54 for the second.

N134I and N134Y are within 0.2 log units of each other in “SGCB cell-surface expression functional score (log10)” value: -0.65 for the first, -0.82 for the second.

N134W and L135Y are within 0.2 log units of each other in “SGCB cell-surface expression functional score (log10)” value: -0.71 for the first, -0.88 for the second.

Compared with L135E, L135K is lower in “SGCB cell-surface expression functional score (log10)” value: -1.07 for the first, -1.3 for the second.

L135D and L135A are within 0.2 log units of each other in “SGCB cell-surface expression functional score (log10)” value: -1.2 for the first, -1.13 for the second.

Compared with L135S, L135V is higher in “SGCB cell-surface expression functional score (log10)” value: -1.11 for the first, -0.35 for the second.

L135N and L135Q are within 0.2 log units of each other in “SGCB cell-surface expression functional score (log10)” value: -1.44 for the first, -1.5 for the second.

Going from L135W to L135G, the “SGCB cell-surface expression functional score (log10)” value falls from -0.88 to -1.2.

Going from L135H to L135F, the “SGCB cell-surface expression functional score (log10)” value rises from -1.28 to -0.08.

Compared with L135R, L135P is lower in “SGCB cell-surface expression functional score (log10)” value: -0.77 for the first, -1 for the second.

Going from L135I to L135C, the “SGCB cell-surface expression functional score (log10)” value falls from -0.47 to -0.83.

Compared with L135M, L135T is lower in “SGCB cell-surface expression functional score (log10)” value: -0.06 for the first, -1.04 for the second.

T138L and T138M are within 0.2 log units of each other in “SGCB cell-surface expression functional score (log10)” value: 0.16 for the first, 0.02 for the second.

Going from T138K to T138I, the “SGCB cell-surface expression functional score (log10)” value rises from -0.25 to 0.11.

T138F and T138H are within 0.2 log units of each other in “SGCB cell-surface expression functional score (log10)” value: 0.14 for the first, 0.22 for the second.

First: T138D
Second: T138E
The “SGCB cell-surface expression functional score (log10)” value of the first is higher: -0.39 for the first, -0.61 for the second.

T138G and T138A are within 0.2 log units of each other in “SGCB cell-surface expression functional score (log10)” value: -0.34 for the first, -0.51 for the second.

Going from T138C to G129W, the “SGCB cell-surface expression functional score (log10)” value falls from -0.1 to -1.42.

First: G129T
Second: G129Y
The “SGCB cell-surface expression functional score (log10)” value of the first is higher: -0.06 for the first, -0.91 for the second.

Going from G129V to N132H, the “SGCB cell-surface expression functional score (log10)” value rises from -0.74 to 0.63.

First: N132D
Second: N132E
The “SGCB cell-surface expression functional score (log10)” value of the first is lower: -0.52 for the first, 0.11 for the second.

Going from N132T to N132G, the “SGCB cell-surface expression functional score (log10)” value rises from -0.61 to 0.13.

N132I and N132R are within 0.2 log units of each other in “SGCB cell-surface expression functional score (log10)” value: -0.22 for the first, -0.38 for the second.

First: N132K
Second: N132Q
The “SGCB cell-surface expression functional score (log10)” value of the first is lower: -0.36 for the first, -0.01 for the second.

Going from N132C to N132W, the “SGCB cell-surface expression functional score (log10)” value falls from 0.33 to -0.63.

Compared with N132M, N132F is higher in “SGCB cell-surface expression functional score (log10)” value: -0.85 for the first, -0.11 for the second.

First: N132V
Second: N132P
The “SGCB cell-surface expression functional score (log10)” value of the first is higher: -0.38 for the first, -1.06 for the second.

Compared with N132Y, N132L is lower in “SGCB cell-surface expression functional score (log10)” value: 0.44 for the first, -0.16 for the second.

First: N132A
Second: N132S
The “SGCB cell-surface expression functional score (log10)” value of the first is higher: 0.15 for the first, -0.31 for the second.

Going from E133S to E133D, the “SGCB cell-surface expression functional score (log10)” value rises from 0.19 to 0.54.

First: E133I
Second: E133R
The “SGCB cell-surface expression functional score (log10)” value of the first is lower: -0.47 for the first, -0.14 for the second.

E133T and E133Q are within 0.2 log units of each other in “SGCB cell-surface expression functional score (log10)” value: 0.08 for the first, -0.09 for the second.

E133H and E133C are within 0.2 log units of each other in “SGCB cell-surface expression functional score (log10)” value: 0.17 for the first, 0.05 for the second.

E133F and E133V are within 0.2 log units of each other in “SGCB cell-surface expression functional score (log10)” value: -0.38 for the first, -0.31 for the second.

Compared with E133M, E133W is higher in “SGCB cell-surface expression functional score (log10)” value: -0.21 for the first, 0.5 for the second.

E133L and E133A are within 0.2 log units of each other in “SGCB cell-surface expression functional score (log10)” value: -0.3 for the first, -0.35 for the second.

First: E133K
Second: E133G
The “SGCB cell-surface expression functional score (log10)” value of the first is lower: -0.35 for the first, -0.14 for the second.

First: E133P
Second: E133N
The “SGCB cell-surface expression functional score (log10)” value of the first is lower: -1 for the first, 0.04 for the second.

With E133Y the “SGCB cell-surface expression functional score (log10)” value was -0.25.
